Test results published in the DeepSol protein solubility set.

Assay: soluble on expression in E. coli; label from the status in PepcDB or PDB records

Sequence | soluble on expression in E. coli
GDLLVVTLENITEAKQGEISLNAALHAAEKQERLYNSITNNTPDLVYVFGLDYSFTYANKALLTMWGKTAEEAIGKGLRENGYEEWHAQMHEREIDEIKATKKSIRGTVSFPHAELGSRMYDYILVPVLNESGEVEAIAGTTRD | not soluble
GDVVEAVENAVARVADTIGSGPSNSQAVPALTAVETGHTSQVTPSDTVQTRHVKNYHSRSESSIENFLSRSACVYMGEYHTTNSDQTKLFASWTISARRMVQMRRKLEIFTYVRFDVEVTFVITSKQDQGTQLGQDMPPLTHQIMYIPPGGPIPKSVTDYTWQTSTNPSIFWTEGNAPPRMSIPFISIGNAYSNFYDGWSHFSQNGVYGYNTLNHMGQIYVRHVNGSSPLPMTSTVRMYFKPKHVKAWVPRPPRLCQYKNASTVNFSPTDITDKRNSITYIPDTVKPDVSNH | soluble
GEFPLQTKTDIHAVLASNGRIIYISANSKLHLGYLQGEMIGSFLKTFLHEEDQFLVESYFYNEHHLMPCTFRFIKKDHTIVWVEAAVEIVTTRAERTEREIILKMKVLEEE | soluble
GEIWVYIDHIGEKPNRASFEIMGEARRIADLMDTSLSAVMVGGEATKSLIEETFEYGADKVYFVETKGFDRYDNEVYTRALAKVIKKYKPEAVFFPGTKNARELASTTAIEVDTGLIADCTNFDVDDKGVLLSTRPDFGGKEMSTIICPRHRPVMVTVRAGVFMPLPRVPGRKGELAREEIDDLFTRLKVLDYRVIEKRNI | not soluble
GELPEKSKLQEIYQELTRLKAAVGELPEKSKLQEIYQELTRLKAAVGELPEKSKLQEIYQELTRLKAAVGELPEKSKLQEIYQELTRLKAAVGELPEKSKLQEIYQELTELKAAVGELPEKSKLQEIYQELTQLKAAVGELPDQSKQQQIYQELTDLKTAFERLGHH | soluble
GEPDAQNWQHTVGKDVVAGLTQREIDRQEVINELFVTEASHLRTLRVLDLIFYQRMKKENLMPREELARLFPNLPELIEIHNSWCEAMKKLREEGPIIKEISDLMLARFDGPAREELQQVAAQFCSYQSIALELIKTKQRKESRFQLFMQEAESHPQCRRLQLRDLIISEMQRLTKYPLLLESIIKHTEGGTSEHEKLCRARDQCREILKYVNEAVKQTENRHRLEGYQKRLDATALERASNPLAAEFKSLDLTTRKMIHEGPLTWRISKDKTLDLHVLLLEDLLVLLQKQDEKLLLKCHSKTAVGSSDSKQTFSPVLKLNAVLIRSVATDKRAFFIICTSKLGPPQIYELVALTSSDKNTWMELLEEAVRNATRHPHHHHHH | soluble
GERRIPESRILRREVVEATSAVAAALQIPARAPVIEMTRVRLIDGAPMLAEEIWLPYDRFAAFSRLELDSIGDLLYPVYEAHCNQIVASATETLTVEAIGPAHARLLRIEPGTPAVVIERLAYGYDRRPLEWRRSRGPASEFIYQAEIR | not soluble
GEVDMTIRGNITYSKNEVLEKDEENQVYSYLYQKGYRVDQVKGLIAEGLFADYDDIRTSPKQEFGTVQPGDIKYKDVNGDGVVNDNDKVAIGATTTPNLVYGIGASFAWKGIDVNVHFQGAGKSTFPIYGKCVYAFSESDWGNIFKDMISDRWVDSETAAKLGLHANENPNATYPRLTYGENKNNQQTSTYWMRDGRYIRLKNLDIGYTLPKSIVNKLHFNNIRIYIAGSNLITWSKFKTWDPETGNPRGEAYPLTKSVTMGLSVNL | not soluble
GFRVFIFIILHFVLTNCIREDMSGCPRDDGGLALKFSYDTNADSRLSTAQGVDRLAVFIFDEKGLFISQVNDSMTSINDDYVMELPYKQGSYQFVAWGGYDKSTYQTSECVPRKTYIDDFFLSVKRQEDNQVTNQPKLLYHGMHDIVELNSKEKTIVLINLKQMTNHIRVIAHNLNQDRSDNIYIEDNNGKYGYDSQFSDDDRITYIPIYEASSEQSNPLIADFNVMRLEKDREPWLRIADKTGTIRYDENLIGKLIGGNPNIDFEHNHDFTIEISFDNYIPVIIKINGWEIVNEEI | not soluble
GGAFTWDTDFNISFNRNKLTKLELQKVYYDAKTADVVNDYVVRNEPGRALGGFYGYISDGVDPETGELMYRDLSGDGKISTSDRTYIGDPNPDFTYGLTNTFSWKGFNLSVFIQGSYGNDIFNASRIETEGMYDGKNQSTKVLNRWKIPGQITNVPKANFKLLNSTYFIEDGSYLRLKDVSLSYNFKGKLLQKWGITRLQPYFTATNLLTWTSYSGMDPEVNQWGNSGTVQGIDWGTYPHSRSYVFGINVEF | not soluble
GGELVLLPAPQIPLIMKIMKKHTPTWVPGVPTLYQKIVEAAERDGISISGVRNSFSGASSLPVETVARWEALTGGLLVEGYGLTETSPIIVGNPMTTDRRPGYVGVPFPDTEIRIANPDNLDETMPDGQEGEVLVRGPQVFSGYLNNPEATAKSFHGQWYRTGDVGIMEEDGFIRLVARIKEVIITGGFNVYPAEVEEVLRNHPDITDATVVGLPRGD | not soluble
GGIYGIGLDITELKRIASMAGRQKRFAERILTRSELDQYYELSEKRKNEFLAGRFAAKEAFSKAFGTGIGRQLSFQDIEIRKDQNGKPYIICTKLSPAAVHVSITHTKEYAAAQVVIERLSS | soluble
GGRALRVLVDMDGVLADFEGGFLRKFRARFPDQPFIALEDRRGFWVSEQYGRLRPGLSEKAISIWESKNFFFELEPLPGAVEAVKEMASLQNTDVFICTSPIKMFKYCPYEKYAWVEKYFGPDFLEQIVLTRDKTVVSADLLIDDRPDITGAEPTPSWEHVLFTACHNQHLQLQPPRRRLHSWADDWKAILDSKRPC | soluble
GGTSNEVAQFLSKENQVIVRMRGLPFTATAEEVVAFFGQHCPITGGKEGILFVTYPDGRPTGDAFVLFACEEYAQNALRKHKDLLGKRYIELFRSTAAEVQQVLNRFSSA | soluble
GHHHHHHHHHHGLVPRGSHMNIQSIETYQVRLPLKTPFVTSYGRLEEKAFDLFVITDEQGNQGFGELVAFEQPDYVQETLVTERFIIQQHLIPLLLTEAIEQPQEVSTIFEEVKGHWMGKAALETAIWDLYAKRQQKSLTEFFGPTRRKIPVGISLGIQEDLPQLLKQVQLAVEKGYQRVKLKIRPGYDVEPVALIRQHFPNLPLMVDANSAYTLADLPQLQRLDHYQLAMIEQPFAADDFLDHAQLQRELKTRICLDENIRSLKDCQVALALGSCRSINLKIPRVGGIHEALKIAAFCQENDLLVWLGGMFESGVGRALNLQFASQPTFSFPGDISATERYFYEDIITEPFILEQGTMTVPQGLGIGVTLSQTNLLKYSQYQKIM | soluble
GHMAKAYKQAGVDIEAGYQAVALMKEHVQKTMRPEVLGGIGGFGGLFDLSALGYRQPVLISGTDGVGTKLKLAFLLDRHDTIGIDCVAMCVNDIIVQGAEPLFFLDYIACGKAVPEKIAAIVKGVADGCVEAGCALIGGETAEMPGMYDEDEYDLAGFAVGVAEKERLITGETIQAGDALVGLPSSGLHSNGYSLVRRIVFEQAKLSLDEIYEPLDVPLGEELLKPTRIYAKLLRSVRERFTIKGMAHITGGGLIENIPRMLPPGIGARIQLGSWPILPIFDFLREKGSLEEEEMFSVFNMGIGLVLAVSPETAAPLVEWLSERGEPAYIIGEVAKGAGVSFAGGGRA | soluble
GHMGAWLASLKQTLGLLPADRKIRVLMLGLDNAGKTSILYRLHLGDVVTTVPTVGVNLETLQYKNISFEVWDLGGQTGVRPYWRCYFSDTDAVIYVVDSTDRDRMGVAKHELYALLDEDELRKSLLLIFANKQDLPDAASEAEIAEQLGVSSIMNRTWTIVKSSSKTGDGLVEGMDWLVERLREQGLGA | soluble
GHMKGLTEKLMILSHQSIKNLLGKVILNYSEENVRENGYDLRICGDKYYELVQGAELPEKKATLREIEFKERAILSANHTYLFESCEEFNMPADLAVLITLKSTLARNGFLAPPTVIDAGYKGKVNVAITAVYNSSLKKGMATHHLIFLKLDKPTERLYNGKYQGGILI | soluble
